Assay results from patent US20080182795A1 (BOSTON MEDICAL CENTER, published 2008).
Where no end group is shown, it is not given here.

Key:
[1] = target: T1, GLP-1 receptor of βTC3 cells (mouse, UniProt O35659 22-463); test: competition with [125I]GLP-1 for binding to βTC3 cells (GLP-1 receptor), room temperature
T1 construct: whole, on cells; also called βTC3 cell receptor; GLP-1 receptors
T1 sequence (looked up): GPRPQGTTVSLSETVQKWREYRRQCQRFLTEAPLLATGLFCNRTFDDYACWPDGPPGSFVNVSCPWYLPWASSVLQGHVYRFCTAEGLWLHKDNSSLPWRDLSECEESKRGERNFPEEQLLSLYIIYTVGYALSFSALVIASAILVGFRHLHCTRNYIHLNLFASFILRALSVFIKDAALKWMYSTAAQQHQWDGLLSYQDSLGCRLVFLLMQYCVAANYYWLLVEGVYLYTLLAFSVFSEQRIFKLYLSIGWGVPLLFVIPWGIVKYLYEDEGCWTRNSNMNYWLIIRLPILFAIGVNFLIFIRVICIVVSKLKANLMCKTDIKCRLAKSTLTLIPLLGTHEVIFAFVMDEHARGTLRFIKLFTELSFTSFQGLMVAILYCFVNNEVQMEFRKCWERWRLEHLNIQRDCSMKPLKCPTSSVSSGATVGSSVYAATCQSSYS
Procedure: (§1) The specific activity of radiolabeled peptides was 10-50 μCi/mg (Hunter, et al., 1962, Nature, 194:495-498; Kieffer, et al., 1993, Can. J Physiol. Pharmacol., 71:917-922). Aliquots were lyophilized and reconstituted in assay buffer at 4° C. to a concentration of 3×10⁵ cpm/100 μl. […] The receptor binding buffer contained 138 mM NaCl, 5.6 mM KCl, 1.2 mM MgCl₂, 2.6 mM CaCl₂, 10 mM Hepes, 10 mM glucose, and 1% bovine serum albumin (BSA, fraction V, protease free, Sigma). […] Cells were washed once with PBS and then harvested with PBS-EDTA solution. βTC3 cells were then suspended in assay buffer at a density of 2×10⁶ cells/ml, and LGIPR2 cells were used at a density of 2.5×10⁵ cells/ml. […] Specific binding was defined as the difference between counts in the absence and presence of unlabeled peptide. […] Values are expressed as a percentage of maximum specific binding and are the mean ±SE, with assays performed in duplicate.

[2] = target: T2, rat GIP receptor (rat, UniProt P43219 19-455); test: competition with [125I]GIP (porcine) for binding to LGIPR2 cells carrying the rat GIP receptor, room temperature
T2 construct: whole, on cells; LGIPR2 cells also carry a cAMP-dependent VIP promoter-lacZ reporter; also called LGIPR2 cells; LGIRP2 cells
T2 sequence (looked up): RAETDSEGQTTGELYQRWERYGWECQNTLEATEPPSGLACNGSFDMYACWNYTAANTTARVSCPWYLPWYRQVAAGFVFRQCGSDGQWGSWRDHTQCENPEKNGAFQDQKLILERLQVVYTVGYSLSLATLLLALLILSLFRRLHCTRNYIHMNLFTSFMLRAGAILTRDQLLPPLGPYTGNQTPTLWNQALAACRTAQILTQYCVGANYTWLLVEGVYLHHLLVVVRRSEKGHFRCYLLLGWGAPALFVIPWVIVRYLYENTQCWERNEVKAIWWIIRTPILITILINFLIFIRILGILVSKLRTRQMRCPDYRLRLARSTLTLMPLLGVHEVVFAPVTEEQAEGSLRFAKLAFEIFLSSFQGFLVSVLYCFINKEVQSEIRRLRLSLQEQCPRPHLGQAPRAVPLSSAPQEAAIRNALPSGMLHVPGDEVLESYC
Procedure: as §1

## ISDYSIAMDKIRQQDFVNWLLAQK-NH2 (also called ANTGIP; ANTGIIP) [GIP (7-30)-NH2]
[1]
  IC50: 80 µM
[2]
  IC50: 200 nM
